# Source: patent US20060068482A1 (Dana-Farber, published 2006)
# T1: p75 MLL test substrate, wild type (MLL aa 2,400 to 2,900, N-terminal Myc tag, C-terminal Flag tag), Q03164
# T1 chain: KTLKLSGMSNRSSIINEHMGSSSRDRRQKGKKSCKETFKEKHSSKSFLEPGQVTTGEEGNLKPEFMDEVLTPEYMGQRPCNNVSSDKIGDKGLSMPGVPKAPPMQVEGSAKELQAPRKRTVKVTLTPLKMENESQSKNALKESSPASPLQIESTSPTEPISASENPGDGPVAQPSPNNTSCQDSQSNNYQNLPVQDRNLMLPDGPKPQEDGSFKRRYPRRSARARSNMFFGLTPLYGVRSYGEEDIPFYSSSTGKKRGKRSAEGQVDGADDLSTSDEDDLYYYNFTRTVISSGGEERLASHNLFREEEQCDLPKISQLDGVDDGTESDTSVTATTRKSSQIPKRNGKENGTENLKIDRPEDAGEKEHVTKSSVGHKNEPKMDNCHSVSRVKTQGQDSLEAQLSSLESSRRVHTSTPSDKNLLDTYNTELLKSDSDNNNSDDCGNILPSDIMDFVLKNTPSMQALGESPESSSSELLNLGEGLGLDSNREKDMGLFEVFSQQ
# T2: p75 MLL substrate with mutant CS1/CS2 sites (MLL aa 2,400 to 2,900 of noncleavable MLL mt, Myc/Flag tagged), Q03164
# T2 chain: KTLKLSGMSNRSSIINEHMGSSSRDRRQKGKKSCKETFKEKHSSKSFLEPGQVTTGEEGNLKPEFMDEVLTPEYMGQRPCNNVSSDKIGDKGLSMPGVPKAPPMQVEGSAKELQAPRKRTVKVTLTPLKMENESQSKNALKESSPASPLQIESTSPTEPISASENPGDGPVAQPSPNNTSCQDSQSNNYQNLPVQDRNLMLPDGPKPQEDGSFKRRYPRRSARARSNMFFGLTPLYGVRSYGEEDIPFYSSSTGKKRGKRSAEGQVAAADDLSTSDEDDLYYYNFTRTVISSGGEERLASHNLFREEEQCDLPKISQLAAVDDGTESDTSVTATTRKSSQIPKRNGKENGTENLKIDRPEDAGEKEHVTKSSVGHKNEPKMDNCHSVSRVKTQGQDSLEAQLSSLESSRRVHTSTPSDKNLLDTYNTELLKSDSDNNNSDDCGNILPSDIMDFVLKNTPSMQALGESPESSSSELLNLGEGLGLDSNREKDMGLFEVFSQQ
# T3: His-tagged 28 kDa alpha subunit of recombinant Taspase1 (human, UniProt Q9H6P5 1-233)
# T3 construct: also called 28 kDa N-terminal alpha subunit; 29 kDa alpha; not shown: N-terminal His tag from bacterial expression vector ET15b (Novagen)
# T3 sequence: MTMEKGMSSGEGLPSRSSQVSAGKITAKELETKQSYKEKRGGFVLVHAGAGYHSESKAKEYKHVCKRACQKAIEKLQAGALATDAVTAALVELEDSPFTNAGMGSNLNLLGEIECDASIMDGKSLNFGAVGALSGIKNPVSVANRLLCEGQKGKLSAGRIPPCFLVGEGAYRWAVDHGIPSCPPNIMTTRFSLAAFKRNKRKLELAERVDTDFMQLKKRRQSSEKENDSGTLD
# Tests used:
# [1] = molecular target: T1, p75 MLL test substrate, wild type (MLL …)
# [2] = molecular target: T2, p75 MLL substrate with mutant CS1/CS2 …
# [3] = molecular target: T3, His-tagged 28 kDa alpha subunit of …; assay: co-purification on a TALON column of N-terminal His-tagged Taspase1 from E. coli, Coomassie-stained SDS-PAGE, Edman degradation of the 22 kDa band
# Description: Purification of recombinant N-terminal His-tagged Taspase1 yielded an expected 50 kDa product, a His-tagged 28 kDa a subunit, and a co-purified 22 kDa polypeptide (FIG. 5A). […] Similarly when an N-terminal and C-terminal epitope tagged human Taspase1 cDNA was expressed in the human 293 T cell line, the 50 kDa product also appeared to be processed to a 28 kDa N-terminal α subunit and a 22 kDa C-terminal β subunit (FIG. 3D). […] However, the D233A mutant retained some residual enzymatic activity, although it was ˜1000 fold less efficient than the wt enzyme (FIG. 5B, middle panel). […] Thus, this MLL cleaving protease is the first endopeptidase within the Asparaginase_{—}2 family with the novel characteristic of being a threonine aspartase, Taspase1.
# His-tagged Taspase1 was expressed in BL21(DE3) cells and purified with a TALON column (Clontech). N-terminal protein sequencing was performed by Molecular Biology Core Facility at the Dana-Farber Cancer Institute.
binder,measurement,setting,value
"Recombinant N-terminal His-tagged Taspase1 (rTaspase1), wild type, expressed in E. coli (protein) chain 1: MTMEKGMSSGEGLPSRSSQVSAGKITAKELETKQSYKEKRGGFVLVHAGAGYHSESKAKEYKHVCKRACQKAIEKLQAGALATDAVTAALVELEDSPFTNAGMGSNLNLLGEIECDASIMDGKSLNFGAVGALSGIKNPVSVANRLLCEGQKGKLSAGRIPPCFLVGEGAYRWAVDHGIPSCPPNIMTTRFSLAAFKRNKRKLELAERVDTDFMQLKKRRQSSEKENDSGTLD chain 2: TVGAVVVDHEGNVAAAVSSGGLALKHPGRVGQAALYGCGCWAENTGAHNPYSTAVSTSGCGEHLVRTILARECSHALQAEDAHQALLETMQNKFISSPFLASEDGVLGGVIVLRSCRCSAEPDSSQNKQTLLVEFLWSHTTESMCVGYMSAQDGKAKTHISRLPPGAVAGQSVAIEGGVCRLESPVN",in vitro cleavage of 35S-methionine labeled p75 MLL substrate,[1],Recombinant Taspase1 (rTaspase1) cleaved the wt p75 MLL
same,"in vitro cleavage, enzyme titration and time course (appearance of p47 and p42 fragments)",[1],"The p47 fragment appears first, while higher enzyme concentration or more time is needed for the appearance of the p42 fragment"
same,in vitro cleavage of 35S-methionine labeled p75 MLL substrate,[2],but not the CS1/2 mt substrate
Recombinant His-tagged Taspase1 D233A mutant (E. coli) (protein) MTMEKGMSSGEGLPSRSSQVSAGKITAKELETKQSYKEKRGGFVLVHAGAGYHSESKAKEYKHVCKRACQKAIEKLQAGALATDAVTAALVELEDSPFTNAGMGSNLNLLGEIECDASIMDGKSLNFGAVGALSGIKNPVSVANRLLCEGQKGKLSAGRIPPCFLVGEGAYRWAVDHGIPSCPPNIMTTRFSLAAFKRNKRKLELAERVDTDFMQLKKRRQSSEKENDSGTLATVGAVVVDHEGNVAAAVSSGGLALKHPGRVGQAALYGCGCWAENTGAHNPYSTAVSTSGCGEHLVRTILARECSHALQAEDAHQALLETMQNKFISSPFLASEDGVLGGVIVLRSCRCSAEPDSSQNKQTLLVEFLWSHTTESMCVGYMSAQDGKAKTHISRLPPGAVAGQSVAIEGGVCRLESPVN,in vitro cleavage activity of purified recombinant mutant enzyme,[1],˜1000 fold less efficient than the wt enzyme
Recombinant His-tagged Taspase1 T234A mutant (E. coli) (protein) MTMEKGMSSGEGLPSRSSQVSAGKITAKELETKQSYKEKRGGFVLVHAGAGYHSESKAKEYKHVCKRACQKAIEKLQAGALATDAVTAALVELEDSPFTNAGMGSNLNLLGEIECDASIMDGKSLNFGAVGALSGIKNPVSVANRLLCEGQKGKLSAGRIPPCFLVGEGAYRWAVDHGIPSCPPNIMTTRFSLAAFKRNKRKLELAERVDTDFMQLKKRRQSSEKENDSGTLDAVGAVVVDHEGNVAAAVSSGGLALKHPGRVGQAALYGCGCWAENTGAHNPYSTAVSTSGCGEHLVRTILARECSHALQAEDAHQALLETMQNKFISSPFLASEDGVLGGVIVLRSCRCSAEPDSSQNKQTLLVEFLWSHTTESMCVGYMSAQDGKAKTHISRLPPGAVAGQSVAIEGGVCRLESPVN,in vitro cleavage activity of purified recombinant mutant enzyme,[1],threonine 234 which became the N-terminus of the β subunit is absolutely essential for cleavage activity
"22 kDa beta subunit of recombinant Taspase1 (enzyme, also called co-purified 22 kDa polypeptide; 22 kDa C-terminal beta subunit) TVGAVVVDHEGNVAAAVSSGGLALKHPGRVGQAALYGCGCWAENTGAHNPYSTAVSTSGCGEHLVRTILARECSHALQAEDAHQALLETMQNKFISSPFLASEDGVLGGVIVLRSCRCSAEPDSSQNKQTLLVEFLWSHTTESMCVGYMSAQDGKAKTHISRLPPGAVAGQSVAIEGGVCRLESPVN",binding result,[3],binds
